Test results taken from patent US20120225828A1 (PALATIN TECHNOLOGIES, published 2012).
Bridge positions count the residues as written; N and C are the ends. Square brackets hold non-standard residues; d marks the D form. Cit = NC(=O)NCCC[C@H](N)C(=O)O; Nle = CCCC[C@H](N)C(=O)O; Orn = NCCC[C@H](N)C(=O)O; Dab = NCC[C@H](N)C(=O)O; Dap = NC[C@H](N)C(=O)O

B1: Ac-Nle-cyclo(Glu-His-D-Phe-Ala-Dab)-NH2 (SEQ ID NO: 48) (peptide)
peptide: Ac-[Nle]EH[dF]A[Dab]-NH2
modifications: lactam 2-6
SMILES: CCCC[C@H](NC(C)=O)C(=O)N[C@H]1CCC(=O)NCC[C@@H](C(N)=O)NC(=O)[C@H](C)NC(=O)[C@@H](Cc2ccccc2)NC(=O)[C@H](Cc2c[nH]cn2)NC1=O
B2: Ac-Nle-cyclo(Glu-His-D-Phe-Dab)-NH2 (peptide)
peptide: Ac-[Nle]EH[dF][Dab]-NH2
modifications: lactam 2-5
SMILES: CCCC[C@H](NC(C)=O)C(=O)N[C@H]1CCC(=O)NCC[C@@H](C(N)=O)NC(=O)[C@@H](Cc2ccccc2)NC(=O)[C@H](Cc2c[nH]cn2)NC1=O
B3: Ac-Nle-cyclo(Glu-His-D-Phe-Arg-Dab)-NH2 (SEQ ID NO: 47) (peptide)
peptide: Ac-[Nle]EH[dF]R[Dab]-NH2
modifications: lactam 2-6
SMILES: CCCC[C@H](NC(C)=O)C(=O)N[C@H]1CCC(=O)NCC[C@@H](C(N)=O)NC(=O)[C@H](CCCNC(=N)N)NC(=O)[C@@H](Cc2ccccc2)NC(=O)[C@H](Cc2c[nH]cn2)NC1=O
B4: Ac-Nle-cyclo(Glu-His-D-Phe-Gly-Dab)-Trp-NH2 (SEQ ID NO: 50) (peptide)
peptide: Ac-[Nle]EH[dF]G[Dab]W-NH2
modifications: lactam 2-6
SMILES: CCCC[C@H](NC(C)=O)C(=O)N[C@H]1CCC(=O)NCC[C@@H](C(=O)N[C@@H](Cc2c[nH]c3ccccc23)C(N)=O)NC(=O)CNC(=O)[C@@H](Cc2ccccc2)NC(=O)[C@H](Cc2c[nH]cn2)NC1=O
B5: Ac-Nle-cyclo(Glu-His-D-Phe-Arg-Dab)-Lys-NH2 (peptide)
peptide: Ac-[Nle]EH[dF]R[Dab]K-NH2
modifications: lactam 2-6
SMILES: CCCC[C@H](NC(C)=O)C(=O)N[C@H]1CCC(=O)NCC[C@@H](C(=O)N[C@@H](CCCCN)C(N)=O)NC(=O)[C@H](CCCNC(=N)N)NC(=O)[C@@H](Cc2ccccc2)NC(=O)[C@H](Cc2c[nH]cn2)NC1=O
B6: Ac-Nle-cyclo(Asp-His-D-Phe-Arg-Dap)-Trp-NH2 (peptide)
peptide: Ac-[Nle]DH[dF]R[Dap]W-NH2
modifications: lactam 2-6
SMILES: CCCC[C@H](NC(C)=O)C(=O)N[C@H]1CC(=O)NC[C@@H](C(=O)N[C@@H](Cc2c[nH]c3ccccc23)C(N)=O)NC(=O)[C@H](CCCNC(=N)N)NC(=O)[C@@H](Cc2ccccc2)NC(=O)[C@H](Cc2c[nH]cn2)NC1=O
B7: Ac-Nle-cyclo(Glu-His-D-Phe-Ala-Dab)-Trp-NH2 (peptide)
peptide: Ac-[Nle]EH[dF]A[Dab]W-NH2
modifications: lactam 2-6
SMILES: CCCC[C@H](NC(C)=O)C(=O)N[C@H]1CCC(=O)NCC[C@@H](C(=O)N[C@@H](Cc2c[nH]c3ccccc23)C(N)=O)NC(=O)[C@H](C)NC(=O)[C@@H](Cc2ccccc2)NC(=O)[C@H](Cc2c[nH]cn2)NC1=O
B8: Ac-Nle-cyclo(Glu-His-D-Phe-Ala-Dab)-Trp-NH2 (SEQ ID NO: 51) (peptide)
peptide: Ac-[Nle]EH[dF]A[Dab]W-NH2
modifications: lactam 2-6
SMILES: CCCC[C@H](NC(C)=O)C(=O)N[C@H]1CCC(=O)NCC[C@@H](C(=O)N[C@@H](Cc2c[nH]c3ccccc23)C(N)=O)NC(=O)[C@H](C)NC(=O)[C@@H](Cc2ccccc2)NC(=O)[C@H](Cc2c[nH]cn2)NC1=O

Molecular target: human melanocortin-1 receptor hMCR-1 expressed by the human melanoma cell line HBL (human, UniProt Q01726 1-317)
Sequence (Q01726 whole entry): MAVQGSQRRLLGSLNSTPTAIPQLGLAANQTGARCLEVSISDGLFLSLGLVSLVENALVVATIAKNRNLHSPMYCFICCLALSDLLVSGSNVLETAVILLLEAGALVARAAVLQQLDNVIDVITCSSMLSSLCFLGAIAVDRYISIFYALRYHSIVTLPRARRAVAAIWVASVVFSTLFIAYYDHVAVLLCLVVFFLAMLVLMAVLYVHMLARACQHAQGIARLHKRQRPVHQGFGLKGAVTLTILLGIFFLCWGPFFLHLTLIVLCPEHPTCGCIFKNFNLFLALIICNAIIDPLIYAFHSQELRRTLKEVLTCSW
Assay: cell-based or functional assay

Binder | MC-1 EC50 (average; cAMP HBL) [nM] | MC-1 Emax (average; cAMP HBL) [%]
B1 | 44 | 73
Ac-[Nle]E[Dab][dF]R[Dab]W-NH2 (lactam 2-6) [Ac-Nle-cyclo(Glu-Dab-D-Phe-Arg-Dab)-Trp-NH2] | – | 108
B2 | – | 51
B3 | 0.32 | 85
B4 | 4 | 59
B5 | 0.175 | 91
B6 | 0.195 | 88
B7 | 0.115 | 72
Ac-[Nle]E[Orn][dF]R[Dab]W-NH2 (lactam 2-6) [Ac-Nle-cyclo(Glu-Orn-D-Phe-Arg-Dab)-Trp-NH2] | – | 109
Ac-[Nle]ER[dF]R[Dab]W-NH2 (lactam 2-6) [Ac-Nle-cyclo(Glu-Arg-D-Phe-Arg-Dab)-Trp-NH2 (SEQ ID NO: 53)] | – | 100
Ac-[Nle]EA[dF]R[Dab]W-NH2 (lactam 2-6) [Ac-Nle-cyclo(Glu-Ala-D-Phe-Arg-Dab)-Trp-NH2] | – | 86
Ac-[Nle]ER[dF]R[Dab]W-NH2 (lactam 2-6) [Ac-Nle-cyclo(Glu-Arg-D-Phe-Arg-Dab)-Trp-NH2] | – | 100
B8 | 0.115 | 72
Ac-[Nle][Dap]H[dF]R[Dab]W-NH2 (linker 2-6 via C(:O)‑(CH2)2‑C(:O)) [Ac-Nle-cyclo(Dap-His-D-Phe-Arg-Dab)-Trp-NH2 with bridge C(═O)-(CH2)2-C(═O)] | 0.016 | 85
Ac-[Nle]E[Cit][dF]R[Dab]W-NH2 (lactam 2-6) [Ac-Nle-cyclo(Glu-Cit-D-Phe-Arg-Dab)-Trp-NH2] | – | 97
Ac-[Nle]EK[dF]R[Dab]W-NH2 (lactam 2-6) [Ac-Nle-cyclo(Glu-Lys-D-Phe-Arg-Dab)-Trp-NH2] | – | 108
Ac-[Nle]EA[dF]R[Dab]W-NH2 (lactam 2-6) [Ac-Nle-cyclo(Glu-Ala-D-Phe-Arg-Dab)-Trp-NH2 (SEQ ID NO: 52)] | – | 86
